Laboratory results: PMC5673658, “Single-Molecule Fluorescence Methods to Study Plant Hormone Signal Transduction Pathways” (Frontiers in Plant Science, 2017)
One block for each molecule: values may come before it.

Key:
[1] = biological target: phosphorylated BES1 (pBES1), BES1 with a His-tag phosphorylated by BIN2 (UniProt Q9LN63); test: CoSMoS (colocalization single-molecule spectroscopy, TIRFM); His-tagged pBES1 immobilised on the slide; binding percentage of 14-3-3κ with pBES1 before and after incubation for 1 h with pBKI1C at >1,000 times the concentration of pBES1
Sequence of phosphorylated BES1 (pBES1), BES1 with a His-tag phosphorylated by BIN2 (Q9LN63 whole entry): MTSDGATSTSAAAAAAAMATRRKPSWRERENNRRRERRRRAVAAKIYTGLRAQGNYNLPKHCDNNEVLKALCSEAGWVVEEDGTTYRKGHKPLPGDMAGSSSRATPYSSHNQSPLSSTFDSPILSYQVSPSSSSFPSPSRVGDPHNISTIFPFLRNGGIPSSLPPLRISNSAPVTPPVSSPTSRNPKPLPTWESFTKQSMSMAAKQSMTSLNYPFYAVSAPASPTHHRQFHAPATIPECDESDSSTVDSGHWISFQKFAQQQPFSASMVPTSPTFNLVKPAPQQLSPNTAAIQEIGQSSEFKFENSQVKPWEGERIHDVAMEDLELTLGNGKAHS

[2] = biological target: 14-3-3κ as used in the CoSMoS competition experiment (UniProt P48348); test: as above
[3] = biological target: the molecule itself; test: single-molecule TIRF microscopy, stepwise photobleaching; His-tagged BES1 phosphorylated by BIN2 (30 min, 37°C) immobilised on the slide; 14-3-3κ/C103S-alexa555 added; bleaching steps counted in 188 trajectories; labeling efficiency 34.7%

binding percentage of 14-3-3κ with pBES1 before pBKI1C [1]: 18%
Molecule: 14-3-3κ as used in the CoSMoS competition experiment (from UniProt P48348 1-248)

binding percentage of 14-3-3κ with pBES1 left after pBKI1C (>1,000 times the concentration of pBES1, 1 h) [2]: 9%
Molecule: phosphorylated BKI1 C terminal (pBKI1C), BKI1C phosphorylated by JKC (domain or fragment)

B1: alexa555-labeled 14-3-3κ/C103S (natural protein, UniProt P48348 1-248, looked up)
chain: MATTLSRDQYVYMAKLAEQAERYEEMVQFMEQLVSGATPAGELTVEERNLLSVAYKNVIGSLRAAWRIVSSIEQKEESRKNEEHVSLVKDYRSKVETELSSISSGILRLLDSHLIPSATASESKVFYLKMKGDYHRYLAEFKSGDERKTAAEDTMIAYKAAQDVAVADLAPTHPIRLGLALNFSVFYYEILNSSEKACSMAKQAFEEAIAELDTLGEESYKDSTLIMQLLRDNLTLWTSDMQEQMDEA
modifications: alexa555 (maleimide derivative) on a cysteine, site not given; labeling efficiency 34.7%
notes: 14-3-3κ (14-3-3 kappa), a plant 14-3-3 protein of the brassinosteroid signaling pathway; printed molecular weight 29073.70 D; also called 14-3-3κ/C103S-alexa555; 14-3-3κ-alexa555; source: E. coli BL21 (DE3)-plysS, purified (amylose and gel filtration columns)
stoichiometry N [3]: 2
